How the values were obtained:
Experiment in all cases: filter
[1] = biological target: T1, secretory phospholipase A2 (sPLA2) (Homo sapiens) (UniProt P14555); conditions: TBSC, 37 C
T1 sequence: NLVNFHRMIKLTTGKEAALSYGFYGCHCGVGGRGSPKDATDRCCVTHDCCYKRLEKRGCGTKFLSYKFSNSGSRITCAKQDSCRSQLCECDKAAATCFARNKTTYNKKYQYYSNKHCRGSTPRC

[2] = biological target: C1q (printed Clq) (Homo sapiens) (UniProt P02745+P02746+P02747); conditions: 2'-NH2 all C and U; random pool; TBSC
[3] = biological target: T2, neutrophil elastase (Homo sapiens) (UniProt P08246); conditions: 2'-NH2 all C and U; random pool; TBSC
T2 sequence: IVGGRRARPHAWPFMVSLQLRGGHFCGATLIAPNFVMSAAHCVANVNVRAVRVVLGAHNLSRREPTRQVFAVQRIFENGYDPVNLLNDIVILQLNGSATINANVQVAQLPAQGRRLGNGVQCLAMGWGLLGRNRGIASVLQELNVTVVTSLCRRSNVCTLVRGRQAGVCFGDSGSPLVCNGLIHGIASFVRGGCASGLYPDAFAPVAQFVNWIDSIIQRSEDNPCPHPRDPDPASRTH

[4] = biological target: basic fibroblast growth factor (bFGF) (Homo sapiens) (UniProt P09038); conditions: random pool, TBSC
Chain of basic fibroblast growth factor (bFGF) (Homo sapiens) (P09038 143-288): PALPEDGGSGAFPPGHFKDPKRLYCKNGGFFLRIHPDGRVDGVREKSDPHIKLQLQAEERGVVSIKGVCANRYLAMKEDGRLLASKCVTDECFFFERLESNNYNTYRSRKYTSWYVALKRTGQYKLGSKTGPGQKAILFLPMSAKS

[5] = tested on: immunoglobulin G (IgG) (Homo sapiens); conditions: 2'-NH2 all C and U, TBSC
[6] = biological target: pancreatic phospholipase A2 (bpPLA2) (Bos taurus) (UniProt P00593); conditions: random pool; TBSC
Chain of pancreatic phospholipase A2 (bpPLA2) (Bos taurus) (P00593 23-145): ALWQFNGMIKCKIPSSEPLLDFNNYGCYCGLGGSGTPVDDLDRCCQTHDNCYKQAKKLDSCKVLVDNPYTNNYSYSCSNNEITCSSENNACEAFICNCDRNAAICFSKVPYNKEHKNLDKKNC

[7] = biological target: lysozyme (egg white) (Gallus gallus) (UniProt P00698); conditions: random pool; TBSC
Chain of lysozyme (egg white) (Gallus gallus) (P00698 19-147): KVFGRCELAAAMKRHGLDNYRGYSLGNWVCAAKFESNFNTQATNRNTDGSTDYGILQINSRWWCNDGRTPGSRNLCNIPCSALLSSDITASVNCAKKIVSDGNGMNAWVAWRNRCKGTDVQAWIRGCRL

[8] = 2'-NH2 all C and U, random starting pool

Chain of C1q (printed Clq) (Homo sapiens) (P02745 23-245, chain 1 of 3): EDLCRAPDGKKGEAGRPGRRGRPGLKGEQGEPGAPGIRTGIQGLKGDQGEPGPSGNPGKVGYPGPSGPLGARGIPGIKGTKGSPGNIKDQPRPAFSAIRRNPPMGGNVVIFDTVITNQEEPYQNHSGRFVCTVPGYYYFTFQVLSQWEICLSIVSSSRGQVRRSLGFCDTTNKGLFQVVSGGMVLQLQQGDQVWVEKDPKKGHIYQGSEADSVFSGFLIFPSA
Chain of C1q (printed Clq) (Homo sapiens) (P02746 28-253, chain 2 of 3): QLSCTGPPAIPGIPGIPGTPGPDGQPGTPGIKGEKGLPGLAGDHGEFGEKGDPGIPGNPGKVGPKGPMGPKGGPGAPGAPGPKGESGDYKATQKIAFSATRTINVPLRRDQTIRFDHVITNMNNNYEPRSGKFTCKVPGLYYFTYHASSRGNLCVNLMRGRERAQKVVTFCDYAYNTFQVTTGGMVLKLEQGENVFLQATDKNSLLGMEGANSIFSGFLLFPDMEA
Chain of C1q (printed Clq) (Homo sapiens) (P02747 29-245, chain 3 of 3): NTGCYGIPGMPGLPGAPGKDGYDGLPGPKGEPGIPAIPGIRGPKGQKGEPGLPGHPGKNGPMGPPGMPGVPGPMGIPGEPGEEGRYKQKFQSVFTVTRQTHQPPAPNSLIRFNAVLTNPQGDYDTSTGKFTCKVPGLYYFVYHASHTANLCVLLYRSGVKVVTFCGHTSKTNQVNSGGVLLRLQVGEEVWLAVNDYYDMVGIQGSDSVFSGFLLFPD

“GGGAAAAGCGAAUCAUACACAAGANNNNNNNNNNNNNNNNNNNNNNNNNNNNNNNNNNNNNNNNNNNNNNNNNNGCUCCGCCAGAGACCAACCGAGAA [50N9 random RNA]” was tested, and the Kd [1, 8] was 48 nM, the Kd [2] was 1000 nM and the Kd [3] was 70 nM. For the same sequence, the Kd ([4]; 2'-NH2 all C and U) was 170 nM and the Kd ([5]; random pool) was > 5000 nM.

In the case of “GGGAGCUCAGAAUAAACGCUCAANNNNNNNNNNNNNNNNNNNNNNNNNNNNNNUUCGACAUGAGGCCCGGAUCCGGC [30N1F random RNA]”, the Kd ([1]; 2'-F all C and U, random 2'-F pool) is reported as 35 nM.

“GGGAAAAGCGAAUCAUACACAAGACCGGCCGGCGCCAUAGCCGAGAUCCGAGGUGUUGAACGAUAACUCGGUGCUCCGCCAGAGACCAACCGAGAA [NN19]” was tested, and the Kd ([5]; specificity control) was > 5000 nM.

For “GGGAGGACGAUGCGGNNNNNNNNNNNNNNNNNNNNNNNNNNNNNNNNNNNNNNNNNNNNNNNNNNCAGACGACUCGCCCGA [50N7 random RNA]”, the Kd [1, 8] was 71 nM.

“GGGAGCUCAGAAUAAACGCUCAAGANCUCUGCUUACAGCCCGGCUGGGACACUUCGACAUGAGGCCCGGAUCCGGC [75t (75)]” showed a Kd ([1]; biphasic, Kd2 420 nM, mole fraction 0.40) of 0.9 nM.

In the case of “GGGAGCUCAGAAUAAACGCUCAANNNNNNNNNNNNNNNNNNNNNNNNNNNNNNUUCGACAUGAGGCCCGGAUCCGGC [30N1 random RNA]”, the Kd ([1]; random pool, text of Example 2 gives 240 nM) is reported as 360 nM, the Kd [6] is reported as 22500 nM and the Kd [4] is reported as 270 nM. It also gave a Kd [7] of 1650 nM.

With “GGGAAAAGAAGACCGGCCGGCGCCAUAGCCGAGAUCCGAGGUGUUGCCGAGAA [NN19.15]” the Kd ([5]; specificity control, like random RNA) was 4300 nM.
